Test results published in article PMC8147279.

Tests used:
[1] = molecular target: β-sliding processivity clamp (Escherichia coli) (UniProt P0A988)
[2] = molecular target: β-sliding processivity clamp (Escherichia coli) (UniProt P0A988); remark: listed apart in the source
[3] = molecular target: β-sliding processivity clamp (Escherichia coli) (UniProt P0A988); remark: listed apart in the source
[4] = molecular target: β-sliding processivity clamp (Escherichia coli) (UniProt P0A988); remark: listed apart in the source
[5] = molecular target: β-sliding processivity clamp (Escherichia coli) (UniProt P0A988); remark: listed apart in the source
[6] = molecular target: β-sliding processivity clamp (Escherichia coli) (UniProt P0A988); remark: listed apart in the source

pol V Mut WT (UmuD’2C-RecA-ATP/ATPγS), sequence (P04152 whole entry): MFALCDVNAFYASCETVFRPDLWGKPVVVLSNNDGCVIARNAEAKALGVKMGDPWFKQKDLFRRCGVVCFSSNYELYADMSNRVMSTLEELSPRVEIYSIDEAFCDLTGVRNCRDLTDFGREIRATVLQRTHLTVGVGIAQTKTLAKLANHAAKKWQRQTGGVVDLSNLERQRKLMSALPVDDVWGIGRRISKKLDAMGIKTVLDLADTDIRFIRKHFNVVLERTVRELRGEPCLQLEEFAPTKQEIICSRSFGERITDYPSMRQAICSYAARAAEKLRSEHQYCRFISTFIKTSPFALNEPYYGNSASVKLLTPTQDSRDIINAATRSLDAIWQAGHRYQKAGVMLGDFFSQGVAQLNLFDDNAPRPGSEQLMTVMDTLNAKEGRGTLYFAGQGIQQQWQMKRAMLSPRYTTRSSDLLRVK
pol V Mut WT (UmuD’2C-RecA-ATP/ATPγS), sequence (P0AG11 25-139): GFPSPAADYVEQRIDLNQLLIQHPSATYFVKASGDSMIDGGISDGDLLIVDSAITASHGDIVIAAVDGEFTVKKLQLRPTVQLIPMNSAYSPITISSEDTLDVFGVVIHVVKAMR
pol V Mut WT (UmuD’2C-RecA-ATP/ATPγS), sequence (P0A7G6 whole entry): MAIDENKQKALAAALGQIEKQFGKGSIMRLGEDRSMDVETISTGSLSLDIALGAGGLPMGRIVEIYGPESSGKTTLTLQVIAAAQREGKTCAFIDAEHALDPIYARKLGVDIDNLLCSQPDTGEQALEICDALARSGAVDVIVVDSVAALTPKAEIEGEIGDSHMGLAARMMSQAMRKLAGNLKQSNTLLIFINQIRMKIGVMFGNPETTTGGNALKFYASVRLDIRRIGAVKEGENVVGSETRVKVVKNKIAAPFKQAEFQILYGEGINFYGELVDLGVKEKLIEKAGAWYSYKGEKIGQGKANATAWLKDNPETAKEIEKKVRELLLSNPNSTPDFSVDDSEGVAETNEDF
β-sliding processivity clamp (Escherichia coli), sequence (P0A988 whole entry): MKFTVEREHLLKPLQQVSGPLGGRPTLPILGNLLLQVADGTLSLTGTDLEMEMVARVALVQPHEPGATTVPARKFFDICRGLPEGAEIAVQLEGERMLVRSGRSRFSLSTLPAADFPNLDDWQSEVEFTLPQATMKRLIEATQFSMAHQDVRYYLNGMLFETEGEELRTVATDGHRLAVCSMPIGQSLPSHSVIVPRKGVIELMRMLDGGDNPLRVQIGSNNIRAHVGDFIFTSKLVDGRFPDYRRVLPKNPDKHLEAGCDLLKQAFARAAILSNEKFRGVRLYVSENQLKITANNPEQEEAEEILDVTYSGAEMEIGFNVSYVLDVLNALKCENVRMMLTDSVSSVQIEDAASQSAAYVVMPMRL

translesion synthesis past an abasic site 3 nt from the primer end, % PE, pol V Mut WT with dATP, ATPγS and β/γ, up to 120 min [3] | Substance | percent of primer extended (% PE) on undamaged circular p/t DNA by pol V Mut WT-ATPγS with β-clamp and γ-complex, 15-120 min (~5% at 60 min without β) [1] | percent of primer extended (% PE) on undamaged circular p/t DNA by pol V Mut WT-ATP with β-clamp and γ-complex, 15-120 min (about 1% without β) [2] | fold increase of DNA elongation rate by β on undamaged DNA, pol V Mut WT-ATP [4] | percent of primer extended (% PE) on undamaged circular p/t DNA by pol V Mut E38K/ΔC17-ATP with β-clamp and γ-complex, 15-120 min (10% at 120 min without β) [5] | percent of primer extended (% PE) on undamaged circular p/t DNA by pol V Mut E38K/ΔC17-ATPγS with β-clamp and γ-complex (γ-complex stays on β with ATPγS) [6] | fold increase of DNA elongation rate by β on undamaged DNA, pol V Mut E38K/ΔC17-ATP [4]
35% | pol V Mut WT (UmuD’2C-RecA-ATP/ATPγS) (from UniProt P04152 1-422; P0AG11 25-139; P0A7G6 1-353) (complex) | > 40% | 5% | 5 fold |  |  | 
 | pol V Mut E38K/∆C17 (UmuD’2C-RecA E38K/∆C17-ATP/ATPγS) (from UniProt P04152 1-422; P0AG11 25-139; P0A7G6 1-353) (complex) |  |  |  | 77% | 42% | 7 fold
